# Measured values reported in patent publication US12662676B2, “Aptamer nucleic acid molecule, and complex and application thereof” (EAST CHINA UNIVERSITY OF SCIENCE AND TECHNOLOGY, priority 2019, dated 2026).
# B1: mCherry-4Pepper: mCherry mRNA fused with 4Pepper-7, SEQ ID No: 26 (nucleic acid)
# chain: AUGGUGAGCAAGGGCGAGGAGGAUAACAUGGCCAUCAUCAAGGAGUUCAUGCGCUUCAAGGUGCACAUGGAGGGCUCCGUGAACGGCCACGAGUUCGAGAUCGAGGGCGAGGGCGAGGGCCGCCCCUACGAGGGCACCCAGACCGCCAAGCUGAAGGUGACCAAGGGUGGCCCCCUGCCCUUCGCCUGGGACAUCCUGUCCCCUCAGUUCAUGUACGGCUCCAAGGCCUACGUGAAGCACCCCGCCGACAUCCCCGACUACUUGAAGCUGUCCUUCCCCGAGGGCUUCAAGUGGGAGCGCGUGAUGAACUUCGAGGACGGCGGCGUGGUGACCGUGACCCAGGACUCCUCCCUGCAGGACGGCGAGUUCAUCUACAAGGUGAAGCUGCGCGGCACCAACUUCCCCUCCGACGGCCCCGUAAUGCAGAAGAAGACCAUGGGCUGGGAGGCCUCCUCCGAGCGGAUGUACCCCGAGGACGGCGCCCUGAAGGGCGAGAUCAAGCAGAGGCUGAAGCUGAAGGACGGCGGCCACUACGACGCUGAGGUCAAGACCACCUACAAGGCCAAGAAGCCCGUGCAGCUGCCCGGCGCCUACAACGUCAACAUCAAGUUGGACAUCACCUCCCACAACGAGGACUACACCAUCGUGGAACAGUACGAACGCGCCGAGGGCCGCCACUCCACCGGCGGCAUGGACGAGCUGUACAAGUAACUCGCUAGAGCAUGGUUAAGCUUCCCACGGAGGAUCCCCAAUCGUGGCGUGUCGGCCUCUCCCAAUCGUGGCGUGUCGGCCUCUCCCAAUCGUGGCGUGUCGGCCUCUCCCAAUCGUGGCGUGUCGGCCUCUCUUCGGAGAGGCACUGGCGCCGGAGAGGCACUGGCGCCGGAGAGGCACUGGCGCCGGAGAGGCACUGGCGCCGGGAUCCUCCGUGGG
# B2: F30-Pepper-1: RNA aptamer, Pepper-1 in F30 scaffold RNA, SEQ ID NO: 2 (nucleic acid)
# chain: UUGCCAUGUGUAUGUGGGUUCGCCCACAUACUCUGAUGAUCCCCAAUCGUGGCGUGUCGGCCUGCUUCGGCAGGCACUGGCGCCGGGAUCAUUCAUGGCAA
# modifications: RNA, backbone not given here
# Legend:
# [1] = system: BL21(DE3, Star) E. coli strain expressing F30-Pepper-1; experiment: Labeling of bacterial RNA; assay type: cell-based; details: 2 μM III-3 in PBS, 4 hours after IPTG induction
# Description: In order to test the effect of Pepper-III-3 in bacteria, a bacterial expression plasmid expressing F30-Pepper-1 was constructed. Primers were used to amplify F30-Pepper-1 in Example 2. Primers were used to amplify pET28a to remove the promoter and multiple cloning site regions. The obtained F30-Pepper-1 fragment and the linearized pET28a were ligated according to the commonly used experimental method (4). The obtained recombinant plasmid was named pET28a-T7-F30-Pepper-1.
# The recombinant plasmid pET28a-T7-F30-Pepper-1was transformed into BL21(DE3, Star) E. coli strain. A single clone was picked and cultured at 37° C. to an OD600 around 0.2 before addition of 1 mM IPTG to induce the expression of F30-Pepper-1. 4 hours after induction, the bacteria were harvested and resuspended in PBS solution containing 2 μM III-3. BL21 (DE3, Star) E. coli transformed with pET28a empty vector was used as the control.
# [2] = system: BY4741 strain expressing F30-Pepper-1; experiment: Labeling of yeast RNA; assay type: cell-based; details: 2 μM III-3 in PBS, 10 hours after galactose induction
# Description: In order to test the effect of Pepper-III-3 in yeast, a yeast expression plasmid expressing F30-Pepper-1 was constructed. The F30-Pepper-1 DNA fragment in Example 2 was amplified using primers, and the amplified F30-Pepper-1 fragment was inserted into the pYES2.1TOPO TA vector according to the commonly used experimental method (4). The obtained recombinant plasmid was named pYES2.1-F30-Pepper-1.
# The recombinant plasmid pYES2.1-F30-Pepper-1 was transformed into BY4741 strain, and a single clone was picked and cultured at 30° C. to an OD600=0.1 before addition of 1 mM galactose to induce the expression of F30-Pepper-1. 10 hours after induction, the yeast cells were harvested and resuspended in PBS containing 2 μM III-3. The untreated BY4741 strain was used as the control.
# Pepper-based GTP sensor = assay type: biochemical; details: with III-3, presence vs absence of GTP; linkage 3
# Method: In order to construct Pepper-based sensors for detecting analytes, the nucleotides in the stem-loop region in the Pepper-1 (SEQ ID No: 2) structure were replaced with the aptamers that can specifically recognize and bind adenosine and guanosine (GTP), respectively. The aptamers Pepper-1 were fused by linkage with different lengths and different nucleotides (FIG. 10A). The RNA sensors were prepared according to the commonly used experimental method (1). The RNA sensors were incubated with III-3 fluorophore, and the fluorescence was measured in the presence or absence of adenosine or GTP using a multifunctional microplate reader.
# [3] = RNA extraction and purification with Mal-III-3 beads, in-gel fluorescence; details: gel incubated with 5 μM III-3 for 30 min
# Method: In order to use Pepper for RNA extraction and purification, the pCDNA3.1 hygro(+)-TagBFP-4Pepper-7 and pCDNA3.1 hygro(+)-mCherry-4Pepper-7 plasmids in Example 12 were transfected into COS-7 cells, respectively. 24 hours after transfection, the cells were collected and the total RNA of the cells was extracted using the Easyp Super Total RNA Extraction Kit (Promega). The extracted total RNA was dissolved in buffer containing 40 mM HEPES, pH 7.4, 125 mM KCl, 5 mM MgCl2. The RNA was incubated at 70° C. for 10 min and placed at room temperature for more than 30 min.
# 500 μL activated Thiol Sepharose 4B (GE Healthcare) was washed twice with 500 μL PBS, and then was incubated with PBS containing 10 mM TCEP (Sigma) for 1 h at room temperature. After washing twice with 500 μL PBS, maleamide conjugated III-3 fluorophore (Mal-III-3) was added to react for 30 min at room temperature, and was washed three times with 500 μL PBS. The treated total RNA was incubated with the treated beads at room temperature. After 30 minutes, the mixture was centrifuged at 4000 rpm for 2 minutes, and the supernatant was discarded. […]
# The recovered RNA was validated by electrophoresis. The gel was incubated with buffer containing 5 μM III-3 in 40 mM HEPES, pH 7.4, 125 mM KCl, and 5 mM MgCl2 for 30 min, and the fluorescence of 4Pepper-III-3 in the gel was detected.
# [4] = Native PAGE oligomerization identification; details: F30-Broccoli and F30-2dBroccoli as controls
# Description: In order to detect whether Pepper binds to III-3 in the form of monomer or polymer, F30-Pepper-1 was identified by the Native PAGE using the monomeric F30-Broccoli (SEQ ID NO: 4) and F30-2dBroccoli (SEQ ID NO: 5) (Filonov et al. Journal of the American Chemical Society 2014. 136: 16299-16308; Filonov et al. Chemistry & biology 2015. 22: 649-660) as the controls. The fluorescence imaging result was compared with the staining result by SYBR Gold (universal nucleic acid dye that was purchased from Invitrogen).
# [5] = Fluorescence activation of III-3 fluorophore by Pepper aptamers and mutants; assay type: biochemical; details: 1 μM III-3 with 5 μM RNA
# Method: Preparation of Pepper or Pepper mutant aptamer according to the commonly used experimental method (1). 5 μM aptamer and 1 μM fluorophore were incubated in the detection buffer (40 mM HEPES, pH 7.4, 125 mM KCl, 5 mM MgCl2, 5% DMSO). The maximal excitation and emission peaks of the aptamer-fluorophore complexes were determined using a Synergy Neo2 multifunctional microplate reader. The fluorescence intensities of the aptamer-fluorophore complexes at the maximal excitation and emission peaks were determined using a Synergy Neo2 multifunctional microplate reader. The control sample (1 μM fluorophore without aptamer) was also measured under the same conditions. Then the ratios of fluorescence intensity were calculated. For example, the fluorescence maximal excitation and emission peaks of the complex of 5 μM F30-Pepper-2 and 1 μM III-3 fluorophore are 485 nm and 530 nm, respectively. The fluorescence intensity of the complex at 485±10 nm excitation and 530 nm±10 nm emission was 36,000, the fluorescence intensity of the control sample (1 μM III-3 fluorophore only) under the same detection conditions was 10. Thus, the activation ratio of F30-Pepper-2 aptamer on III-3 fluorophore was 3,600-fold.
# In order to detect the fluorescence activation of III-3 fluorophore by different Pepper mutant, the Pepper-1 sequence in F30-Pepper-1 was mutated according to Table 1. […] 1 μM III-3 was incubated with […] RNA and their fluorescence activation folds were determined according to the commonly used experimental method (5). […] In summary, many Pepper mutants containing single and multiple mutants still retain the ability to activate the fluorescence of III-3 fluorophore.
# In order to detect the activation of III-3 by modified Pepper, base-modified Pepper-3 was synthesized (SEQ ID NO: 6, the underlined nucleotides in […] GGCC contain deoxyribonucleotide bases) and Pepper-4 (SEQ ID NO: 7, the underlined nucleotides in […] GGGCC contain 2′-F modification) (synthesized by Shanghai GenePharma Co., Ltd), which contain deoxyribonucleotides replacement (shaded bases in FIG. 5A) or 2′-F modification (shaded bases in FIG. 5B) in the stem-loop region of Pepper. Detection of the fluorescence activation of III-3 fluorophore by these modified Peppers was carried out according to the commonly used experimental method (5).
# [6] = Binding constant of Pepper and III-3; details: 2 nM F30-Pepper-1 with different concentrations of III-3
# Method: In order to detect the binding constant of Pepper and III-3, 2 nM F30-Pepper-1 was incubated with different concentrations of III-3 and their fluorescence was determined.
# [7] = Thermostability of Pepper (fluorescence after 5 minutes at different temperatures); assay type: physicochemical; details: 1 μM aptamer with 10 μM fluorophore (III-3 for F30-Pepper-1, DFHBI-1T for F30-Broccoli), 5 minutes at each temperature
# Method: In order to test the thermostability of Pepper, 10 μM III-3 was incubated with 1 μM F30-Pepper-1, and then was placed at different temperatures for 5 minutes before the fluorescence was determined. 10 μM DFHBI-1T was incubated with 1 μM F30-Broccoli to be as the control.
molecule,measurement,setting,value
CN(CCO)c1ccc(/C=C(\C#N)c2ccc(C#N)cc2)cc1 [III-3],fluorescent labeling of RNA in bacteria,[1],bright yellow-green fluorescence only when F30-Pepper-1 was expressed and in the presence of III-3
same,RNA labeling in yeast cells,[2],bright yellow-green fluorescence only when F30-Pepper-1 was expressed and in the presence of III-3
"GTP sensor: Pepper-1 with stem-loop replaced by GTP aptamer, linkage 3, SEQ ID No:22 (UCCCCAAUCGUGGCGUGUCGUAAGAAGAGCACGUAUACGCAAUAACUGGCGCCGGGA; listed as RNA, chemistry not given here)",activation fold of GTP sensor,Pepper-based GTP sensor,10 folds
B1,in-gel fluorescence of recovered RNA,[3],bright Pepper-III-3 fluorescence signals
B2,form in which aptamer binds III-3 (monomer or polymer),[4],monomer
same,Activation folds,[5]; Activation of III-3 by Pepper mutants with multiple mutations,3600 folds
same,Activation folds,[5]; Activation of III-3 by Pepper mutants with single mutation,3600 folds
same,Kd,[6],3.5 nM
same,Tm,[7],55 °C
